Measured values reported in patent publication US20040091487A1.

What was measured:
Assay in all cases: cell-based or functional assay
[1] = target: HIV-1 IN within Gag-Pol (Gag-Pol polyprotein encoded by pCMVDR8.2) (HIV-1)
[2] = target: HIV-1 IN H12Y within Gag-Pol (pCMV-H12Y) (HIV-1)
[3] = target: HIV-1 IN within Gag-Pol of the molecular clone HIV-1R3B (HIV-1)

Row | Substance | % inhibition [1] [%] | P24 of culture supernatants [1] [ng/mL] | decrease in the viral titers as compared to the control [1] [fold] | inhibition of p24 production [1] [fold] | decrease in the level of H12Y virion associated p24 production [2] [fold] | % inhibition [3] [%] | p24 of culture supernatants [3] [ng/mL]
1 | HA-INI1 aa 1-245 (clone 27B) (from UniProt Q12824 1-245) | 16 | 95.6 |  |  |  |  | 
2 | HA-INI1 aa 141-385 (clone 20.2) (from UniProt Q12824 141-385) | 69 | 35.4 |  |  |  |  | 
3 | HA-E3 (from UniProt Q12824 183-294) |  |  | 2 | 2 |  |  | 
4 | HA-S6 (HA-INI1 aa 183-294) (from UniProt Q12824 183-294) | 100 | 0 |  | 80000 | 10 | > 99.7 | 0.69
